Here are results for three molecules from paper PMC3415457, “Cohesin Rings Devoid of Scc3 and Pds5 Maintain Their Stable Association with the DNA” (PLoS Genetics, 2012).

To fix the notation:
T1: Scc3, recombinant, His6-tagged (S. cerevisiae (budding yeast), UniProt P40541 1-1150)
T1 construct: also called His6-tagged Scc3; source: E. coli BL21 (DE3) RIL, purified (Ni-NTA, gel filtration); not shown: His6, C-terminal, kept
T1 sequence (looked up): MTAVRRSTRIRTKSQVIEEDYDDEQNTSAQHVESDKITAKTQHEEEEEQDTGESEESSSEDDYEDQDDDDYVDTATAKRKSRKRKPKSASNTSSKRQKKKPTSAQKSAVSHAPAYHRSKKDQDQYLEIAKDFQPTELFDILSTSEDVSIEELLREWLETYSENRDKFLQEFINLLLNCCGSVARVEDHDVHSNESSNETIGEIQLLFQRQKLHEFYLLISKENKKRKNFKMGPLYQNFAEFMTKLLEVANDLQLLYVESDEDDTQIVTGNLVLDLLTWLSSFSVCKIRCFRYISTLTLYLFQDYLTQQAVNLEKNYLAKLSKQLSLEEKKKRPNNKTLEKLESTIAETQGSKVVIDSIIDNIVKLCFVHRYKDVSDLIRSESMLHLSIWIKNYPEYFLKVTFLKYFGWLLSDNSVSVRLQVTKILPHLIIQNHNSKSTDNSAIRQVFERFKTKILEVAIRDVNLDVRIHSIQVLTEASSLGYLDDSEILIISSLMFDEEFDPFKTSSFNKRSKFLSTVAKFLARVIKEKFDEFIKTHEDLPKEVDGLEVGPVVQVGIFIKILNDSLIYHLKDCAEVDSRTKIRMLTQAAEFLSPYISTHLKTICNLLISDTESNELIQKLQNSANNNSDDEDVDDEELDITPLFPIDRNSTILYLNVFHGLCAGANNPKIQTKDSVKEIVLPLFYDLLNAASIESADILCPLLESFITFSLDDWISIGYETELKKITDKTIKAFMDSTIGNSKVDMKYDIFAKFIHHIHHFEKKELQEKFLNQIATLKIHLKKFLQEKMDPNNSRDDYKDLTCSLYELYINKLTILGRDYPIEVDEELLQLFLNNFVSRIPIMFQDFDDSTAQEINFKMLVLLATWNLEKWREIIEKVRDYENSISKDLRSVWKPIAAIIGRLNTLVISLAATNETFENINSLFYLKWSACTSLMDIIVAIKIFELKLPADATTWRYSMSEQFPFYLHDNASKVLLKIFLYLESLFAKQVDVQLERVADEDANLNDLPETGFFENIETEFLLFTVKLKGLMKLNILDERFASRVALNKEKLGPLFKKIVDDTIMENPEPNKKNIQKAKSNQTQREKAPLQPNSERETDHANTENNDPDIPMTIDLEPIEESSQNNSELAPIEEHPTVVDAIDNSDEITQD

T2: Pds5, recombinant, His6-tagged (S. cerevisiae (budding yeast), UniProt Q04264 1-1277)
T2 construct: also called His6-tagged Pds5; source: E. coli BL21 (DE3) RIL, purified (Ni-NTA, gel filtration); not shown: His6, C-terminal, kept
T2 sequence (looked up): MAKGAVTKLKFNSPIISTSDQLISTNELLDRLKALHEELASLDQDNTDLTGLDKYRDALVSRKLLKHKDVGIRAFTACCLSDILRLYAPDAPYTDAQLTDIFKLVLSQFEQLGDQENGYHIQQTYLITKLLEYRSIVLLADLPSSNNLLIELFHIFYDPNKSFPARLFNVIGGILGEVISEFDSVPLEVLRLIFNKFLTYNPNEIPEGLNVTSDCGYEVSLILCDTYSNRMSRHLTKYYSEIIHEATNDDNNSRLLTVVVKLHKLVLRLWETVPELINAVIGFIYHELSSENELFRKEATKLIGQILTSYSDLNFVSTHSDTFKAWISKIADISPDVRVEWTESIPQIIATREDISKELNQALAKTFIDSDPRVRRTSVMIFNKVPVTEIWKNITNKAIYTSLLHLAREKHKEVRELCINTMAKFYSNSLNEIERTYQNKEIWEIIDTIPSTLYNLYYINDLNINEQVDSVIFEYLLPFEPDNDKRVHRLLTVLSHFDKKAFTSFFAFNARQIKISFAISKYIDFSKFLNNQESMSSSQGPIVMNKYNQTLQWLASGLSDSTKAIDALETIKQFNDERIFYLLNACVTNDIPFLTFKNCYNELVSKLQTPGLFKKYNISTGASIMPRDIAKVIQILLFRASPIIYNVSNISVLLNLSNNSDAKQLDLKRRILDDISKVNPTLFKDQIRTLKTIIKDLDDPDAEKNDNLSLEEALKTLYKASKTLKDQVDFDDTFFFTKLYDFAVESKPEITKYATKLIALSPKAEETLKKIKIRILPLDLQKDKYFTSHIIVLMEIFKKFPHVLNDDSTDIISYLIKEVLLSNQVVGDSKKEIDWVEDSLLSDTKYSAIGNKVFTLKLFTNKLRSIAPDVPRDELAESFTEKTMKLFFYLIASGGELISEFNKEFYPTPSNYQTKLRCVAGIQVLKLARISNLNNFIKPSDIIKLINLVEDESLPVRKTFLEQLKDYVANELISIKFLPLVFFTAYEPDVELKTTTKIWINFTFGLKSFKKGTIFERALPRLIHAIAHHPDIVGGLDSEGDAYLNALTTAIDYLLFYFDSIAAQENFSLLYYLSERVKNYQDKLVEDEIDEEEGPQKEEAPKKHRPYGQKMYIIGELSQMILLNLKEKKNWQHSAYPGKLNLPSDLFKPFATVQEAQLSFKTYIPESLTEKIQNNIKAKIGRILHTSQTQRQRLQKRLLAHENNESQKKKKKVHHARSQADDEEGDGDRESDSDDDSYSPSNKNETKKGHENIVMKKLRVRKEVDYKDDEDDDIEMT

T3: GST fused to the C-terminal region (aa 338–566) of Scc1 (Saccharomyces cerevisiae (strain ATCC …, UniProt Q12158))
T3 chain: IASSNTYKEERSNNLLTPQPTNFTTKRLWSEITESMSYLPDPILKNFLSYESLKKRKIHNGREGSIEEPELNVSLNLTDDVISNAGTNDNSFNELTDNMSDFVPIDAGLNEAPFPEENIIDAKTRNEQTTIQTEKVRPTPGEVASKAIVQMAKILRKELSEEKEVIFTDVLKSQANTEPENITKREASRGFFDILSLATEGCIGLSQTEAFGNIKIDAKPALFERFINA

T4: GST fused to the N-terminal region (aa 1–168) of Scc1 (Saccharomyces cerevisiae (strain ATCC …, UniProt Q12158))
T4 chain: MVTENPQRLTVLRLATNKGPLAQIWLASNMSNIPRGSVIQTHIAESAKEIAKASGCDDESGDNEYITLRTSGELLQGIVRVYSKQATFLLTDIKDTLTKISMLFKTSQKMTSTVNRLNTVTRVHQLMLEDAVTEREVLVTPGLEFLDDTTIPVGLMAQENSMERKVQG

B1: GST fused to the C-terminal region (aa 338–566) of Scc1 (domain or fragment, S. cerevisiae (budding yeast), UniProt Q12158 338-566, looked up)
chain: T3 chain
notes: Scc1 of budding yeast, C-terminal region, aa 338–566; The methods' sentence on C-terminal His6 tags follows the list of constructs; whether it also holds for the GST fusions is not clear; also called C-terminal part of Scc1; Scc1 C-terminus
B2: GST fused to the N-terminal region (aa 1–168) of Scc1 (domain or fragment, S. cerevisiae (budding yeast), UniProt Q12158 1-168, looked up)
chain: T4 chain
notes: Scc1 of budding yeast, N-terminal region, aa 1–168; The methods' sentence on C-terminal His6 tags follows the list of constructs; whether it also holds for the GST fusions is not clear; also called N-terminal region of Scc1; Scc1 N-terminus
B3: Wpl1, recombinant, His6-tagged (natural protein, S. cerevisiae (budding yeast), UniProt Q99359 1-647, looked up)
chain: MRAYGKRGPVLRTPFRSNKGLPSSSDVEFSDDDVNSVIPDVSSTISSSIADHPIEGLLDEPRKAQDSSSSFDGANEKPSSQLDSKRNDQNVKIITSSDTSMAFMKDEKLSAFNFLDGSKASKRKRRRTYQKHDANITSSIEPDVQDEDSITMHNEFESIRKIYNDINEFILKLPRADDDILNKMLENEMKMDDSIENNSIRTSKDKKYGKFRTILINKNKENEIMGEEVDQKANTLSLNNADNSNAEKEGLTSTNHYNELKNMGDTIKYQDDIEFLLSNSKSNDNTTVPINEYFKKLLNLSLMIINDEEFFQYAKRYFKKEIIKLSFAQFRSDFPELILLQGYLLHKVSESQSDFPPSFDNFSIELSKDDGKIRTKKNKHIKKLSHLNFEDFLRKTQFKTGLYYSLSLWEMHGNLSLDIIKRISILASNKDLFSRHVKTFIPLLEKLITASEFCHMYIEQPEMFDSLISNLNNQFKDMLDDDSLIKILILLTNMEVHNYTLWKEADMIFQSSMNTILESIHPLTDAKVDNILLHLGLCLNICSRENSRLKLDGKLWYDMKTIFVKMIRDGSDTENRLVQGLFYLNFSFLIKQRKENSNLDPGELNLLLVELEAFKSETSQFNEGISNKIEIALNYLKSIYTSERITI
notes: also called Rad61; His6-tagged Wpl1; source: E. coli BL21 (DE3) RIL, purified (Ni-NTA, gel filtration); not shown: His6, C-terminal, kept

Assay [1] addresses T1, Scc3, recombinant, His6-tagged. Description: pull-down; GST fusions of Scc1 regions on glutathione-agarose beads; His6-tagged Wpl1, Scc3 and Pds5 mixed together and pre-incubated 30 min at 4°C, then with beads 2 h at 4°C; 20 mM HEPES pH 7.5, 100 mM NaCl, 5% glycerol, 5 mM 2-mercaptoethanol; washes with 0.5% NP-40; Western blot with Penta-His antibody. Conditions: both partners purified.

In assay [2] the target is B3. Described as above. Conditions: both partners purified.
For assay [3], the target named is T2, Pds5, recombinant, His6-tagged. The description is as above. As to conditions: both partners purified.
In assay [4] the target is T3, GST fused to the C-terminal region (aa …). Description: GST pull-down; Scc3 present: Wpl1 bound as Scc3/Wpl1 complex (Wpl1, Scc3 and Pds5 premixed); direct Wpl1-Scc1 binding alone not reported in text.
Assay [5] addresses T4, GST fused to the N-terminal region (aa …). In words: GST pull-down; Pds5 present: Wpl1 bound as Pds5/Wpl1 complex (Wpl1, Scc3 and Pds5 premixed); direct Wpl1-Scc1 binding alone not reported in text.
Assay [6] addresses T2, Pds5, recombinant, His6-tagged. Description: co-sedimentation; 10–30% glycerol gradient; 10 mM HEPES-KOH pH 7.5, 75 mM NaCl, 0.25 mM EDTA; proteins mixed and preincubated 1 h at 4°C; 38000 rpm, 38 h, 4°C, SW40 Ti; fractions on Coomassie-stained SDS-PAGE. As to conditions: both partners purified.

In the case of B1, the binding result in assay [1] and in assay [2] was “binds” each time.
With B2, the binding result in assay [3] and in assay [2] was “binds” each time.
B3: the binding result in assay [4], in assay [5] and in assay [6] was “binds” throughout.
